Tests used:
Type in all cases: in vivo
Settings in all cases: 7 DAT, number of plants of 24 per genotype, grades
[1] = test system: Arabidopsis thaliana T1 plants; test: oxyfluorfen tolerance of transgenic Arabidopsis thaliana T1 plants (spray, grade of pesticide damage)
How it was run: (§1)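 Saflufenacil (25, 100 g ai/ha), sulfentrazone (450, 900), flumioxazin (60, 240) and oxyfluorfen (180, 720) or water were sprayed on 18-day-old PPO-transgenic T1 plants, control-vector and wild-type plants, 24 per genotype. Seven days later, damage was graded: 0 as in water controls, 1 <10% injured leaf area, 3 100%.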

[2] = test system: Arabidopsis thaliana T1 plants; test: saflufenacil tolerance of transgenic Arabidopsis thaliana T1 plants (spray, grade of pesticide damage)
How it was run: as §1

[3] = test system: Arabidopsis thaliana T1 plants; test: flumioxazin tolerance of transgenic Arabidopsis thaliana T1 plants (spray, grade of pesticide damage)
How it was run: as §1

[4] = test system: Arabidopsis thaliana T1 plants; test: sulfentrazone tolerance of transgenic Arabidopsis thaliana T1 plants (spray, grade of pesticide damage)
How it was run: as §1

B1: PPO11A: nucleotide sequence encoding microbial protoporphyrinogen oxidase PPO11 (SEQ ID NO:11), Arabidopsis thaliana/soybean common codon usage bias (nucleic acid)
DNA: ATGCAAAAAGCTCTTTTCCTCTACAGTTCAAGAGAAGGACAAACAAAGAAAATACTCAACTACATCAAGGAAGAACTATCAGAGTTTGATTGTGAGCTTGCTGATCTTCATCAGATTGAAGATATTGATTTAGCCTTGTATGATCGAGTATTAATAGGCGCAAGCATCCGGTATGGTCACTTGAACAAAAAGCTTTATCAGTTTATTGAGAAGCATGCTGAGCAACTTGCGCTGGCAAAAGCAGCTTTCTTCTGCGTGAATCTCACTGCAAGGAAAGAGGCTCAAGGAAAAGATACTCCGGAAGGTTCTGTTTACATAAAGACGTTTCTGTCCAAGTCTGCTTGGCAACCAAAGTTGATTGGAGTTTTTGCTGGTGCCCTATACTATCCTCGTTACCATTTCTTTGACAAAGTGATGATTAGATTCATCATGTCTTTAACCGGGGGAGAAACTGACACATCAAAAGAAGTTGAGTATACAAATTGGCAGAAAGTCTCGTTGTTTAGTGACAATTTCAAGAAGATGTGA
modifications: The nucleotide sequence of PPO11A
- The grade of pesticide damage/plant: grade 0 ([1]; oxyfluorfen 180 g ai/ha (1×)): 24 plant
- The grade of pesticide damage/plant: grade 1 ([1]; oxyfluorfen 180 g ai/ha (1×)): 0 plant
- The grade of pesticide damage/plant: grade 2 ([1]; oxyfluorfen 180 g ai/ha (1×)): 0 plant
- The grade of pesticide damage/plant: grade 3 ([1]; oxyfluorfen 180 g ai/ha (1×)): 0 plant
- The grade of pesticide damage/plant: grade 0 ([1]; oxyfluorfen 720 g ai/ha (4×)): 21 plant
- The grade of pesticide damage/plant: grade 1 ([1]; oxyfluorfen 720 g ai/ha (4×)): 3 plant
- The grade of pesticide damage/plant: grade 2 ([1]; oxyfluorfen 720 g ai/ha (4×)): 0 plant
- The grade of pesticide damage/plant: grade 3 ([1]; oxyfluorfen 720 g ai/ha (4×)): 0 plant
- The grade of pesticide damage/plant: grade 0 ([2]; saflufenacil 25 g ai/ha (1×)): 24 plant
- The grade of pesticide damage/plant: grade 1 ([2]; saflufenacil 25 g ai/ha (1×)): 0 plant
- The grade of pesticide damage/plant: grade 2 ([2]; saflufenacil 25 g ai/ha (1×)): 0 plant
- The grade of pesticide damage/plant: grade 3 ([2]; saflufenacil 25 g ai/ha (1×)): 0 plant
- The grade of pesticide damage/plant: grade 0 ([2]; saflufenacil 100 g ai/ha (4×)): 0 plant
- The grade of pesticide damage/plant: grade 1 ([2]; saflufenacil 100 g ai/ha (4×)): 24 plant
- The grade of pesticide damage/plant: grade 2 ([2]; saflufenacil 100 g ai/ha (4×)): 0 plant
- The grade of pesticide damage/plant: grade 3 ([2]; saflufenacil 100 g ai/ha (4×)): 0 plant
- The grade of pesticide damage/plant: grade 0 ([3]; flumioxazin 60 g ai/ha (1×)): 24 plant
- The grade of pesticide damage/plant: grade 1 ([3]; flumioxazin 60 g ai/ha (1×)): 0 plant
- The grade of pesticide damage/plant: grade 2 ([3]; flumioxazin 60 g ai/ha (1×)): 0 plant
- The grade of pesticide damage/plant: grade 3 ([3]; flumioxazin 60 g ai/ha (1×)): 0 plant
- The grade of pesticide damage/plant: grade 0 ([3]; flumioxazin 240 g ai/ha (4×)): 20 plant
- The grade of pesticide damage/plant: grade 1 ([3]; flumioxazin 240 g ai/ha (4×)): 4 plant
- The grade of pesticide damage/plant: grade 2 ([3]; flumioxazin 240 g ai/ha (4×)): 0 plant
- The grade of pesticide damage/plant: grade 3 ([3]; flumioxazin 240 g ai/ha (4×)): 0 plant
- The grade of pesticide: grade 0 ([4]; sulfentrazone 450 g ai/ha (1×)): 24
- The grade of pesticide: grade 1 ([4]; sulfentrazone 450 g ai/ha (1×)): 0
- The grade of pesticide: grade 2 ([4]; sulfentrazone 450 g ai/ha (1×)): 0
- The grade of pesticide: grade 3 ([4]; sulfentrazone 450 g ai/ha (1×)): 0
- The grade of pesticide: grade 0 ([4]; sulfentrazone 900 g ai/ha (2×)): 19
- The grade of pesticide: grade 1 ([4]; sulfentrazone 900 g ai/ha (2×)): 5
- The grade of pesticide: grade 2 ([4]; sulfentrazone 900 g ai/ha (2×)): 0
- The grade of pesticide: grade 3 ([4]; sulfentrazone 900 g ai/ha (2×)): 0
